Biological target: T1, Epithelial membrane protein 2 (EMP2), human, P54851
T1 chain: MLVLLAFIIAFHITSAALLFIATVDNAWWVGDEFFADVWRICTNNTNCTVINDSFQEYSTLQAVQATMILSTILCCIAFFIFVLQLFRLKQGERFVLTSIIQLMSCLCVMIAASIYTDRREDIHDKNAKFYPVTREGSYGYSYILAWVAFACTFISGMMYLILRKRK

B1: Focal adhesion kinase (FAK), human (protein)
chain: AAAYLDPNLNHTPNSSTKTHLGTGMERSPGAMERVLKVFHYFESNSEPTTWASIIRHGDATDVRGIIQKIVDSHKVKHVACYGFRLSHLRSEEVHWLHVDMGVSSVREKYELAHPPEEWKYELRIRYLPKGFLNQFTEDKPTLNFFYQQVKSDYMLEIADQVDQEIALKLGCLEIRRSYWEMRGNALEKKSNYEVLEKDVGLKRFFPKSLLDSVKAKTLRKLIQQTFRQFANLNREESILKFFEILSPVYRFDKECFKCALGSSWIISVELAIGPEEGISYLTDKGCNPTHLADFTQVQTIQYSNSEDKDRKGMLQLKIAGAPEPLTVTAPSLTIAENMADLIDGYCRLVNGTSQSFIIRPQKEGERALPSIPKLANSEKQGMRTHAVSVSETDDYAEIIDEEDTYTMPSTRDYEIQRERIELGRCIGEGQFGDVHQGIYMSPENPALAVAIKTCKNCTSDSVREKFLQEALTMRQFDHPHIVKLIGVITENPVWIIMELCTLGELRSFLQVRKYSLDLASLILYAYQLSTALAYLESKRFVHRDIAARNVLVSSNDCVKLGDFGLSRYMEDSTYYKASKGKLPIKWMAPESINFRRFTSASDVWMFGVCMWEILMHGVKPFQGVKNNDVIGRIENGERLPMPPNCPPTLYSLMTKCWAYDPSRRPRFTELKAQLSTILEEEKAQQEERMRMESRRQATVSWDSGGSDEAPPKPSRPGYPSPRSSEGFYPSPQHMVQTNHYQVSGYPGSHGITAMAGSIYPGQASLLDQTDSWNHRPQEIAMWQPNVEDSTVLDLRGIGQVLPTHLMEERLIRQQQEMEEDQRWLEKEERFLKPDVRLSRGSIDREDGSLQGPIGNQHIYQPVGKPDPAAPPKKPPRPGAPGHLGSLASLSSPADSYNEGVKLQPQEISPPPTANLDRSNDKVYENVTGLVKAVIEMSSKIQPAPPEEYVPMVKEVGLALRTLLATVDETIPLLPASTHREIEMAQKLLNSDLGELINKMKLAQQYVMTSLQQEYKKQMLTAAHALAVDAKNLLDVIDQARLKMLGQTRPH
phosphorylation of FAK at Tyr-397, Tyr-407, Tyr-861 and Tyr-925 (quantitative Western blot, ARPE-19/EMP2 against ARPE-19): EMP2 overexpression enhanced phosphorylation of FAK two- to three-fold at Tyr-397, Tyr-407, Tyr-861, and Tyr-925

Reference: patent US20130004493
